Measured values reported in the DeepSol protein solubility set.

experiment: soluble on expression in E. coli; label from the status in PepcDB or PDB records

Sequence | soluble on expression in E. coli
MNESIYTTPQSSKTPKSKSARYSSPYQVIDLNNESQEDLKTRLLEAENIIQDLRSERDALHESLVDKAGLNESVIIERSNKVSTQETRIYRRDVTLLEDDLKQKESQIRILQNRCLRLETEKQKMQDTISGYQEDLKENEIRIENLNSRLHKLEDELSAKTHEIFSIGEELKNKTMKLNEKNSQFQTKLAEISSENRNLERKVQKFREELIVKDQRSLEVHQDQENTQKVLKEVKQLSDRLDYLTPKRKDVSRIKERDDFLQFSAKIIEETMSELKLKNARLERELSEKEELVKVTKEELQELQKTVTQAMGDSEQATKYLHAENMKLTRQKADIRCDLLEARRNLKGFDEKREELEKQRDEALEDVRRITELKKNVEIELRSLKLLAEEREEQIDELKSRVAGYEVLRRDHEAVKNELAKAEEKLNKMGAHLVMADKQSSHFKTLKETAEGSRRRAIEQCNEMVARIRGLEASLENQRKVEQELEMVKAENVRQAKKIEFMKEEIQETHLDYREELSKLAKGGGSHEADSQRDSELRSAKKTIQEVKADNKKLQQILEEVRQNQSKVLEENVKLRKGMAEAIEKIEEFKRNWHSSREAGERLQLEAKENEEKVLKVEEELQEKRLEVLEKEELVNYLQSQINTKQTKQPKLSRRSTLMSTISEVDTSTYVREVEEVRALEEQREELQAYLAEKRKMADLQKSRSTANTTTLITSTTATEVSKSACELSYPPATMRHDIPHKWLEFRHYSVLSMKCSLCFVGITFFTKANKCSHCDVRVHASCAPRVNNTCGIPAQCATYYQDAQAVGGIGRMNGWLRVYRDDLPESTWTSLWAMMDSNHVKFYRDAGADNLENPYFTIDLNKEQWILRTGQEVAIPGDVMRNVLTIKLQTRSVHIVAPTPKSAERWAACLQNAQTRRMMKNSKPSSIAEYSCLLTLSLPNNLKIFKAHTIEDWILFATQTGLFFTSISQPRNPTRIAGPSSVTSLEVMSEINCVAMITNSNRQLALIPLDSLTLAMQSTHPSIRAEVLPEFGHVHTIRYHQQDGQRFLLVSDDTQLHIRKYNSTRDVFAHFAKLVVPEPVSFIESTPAGFIFASDTFYYVPLDHQSPSDVSARKLMPPRRSDYPVSAHAITANEILLAYQNHGIFVNLYGEQSRNQIIEWEKMPIEFAYTSPLLYIVHDDSIEIVQISKSSKETVLAEREVIACVNAHIVQSDGVLISVSSKDITEVHRFSATCRGTGTKRRGISPFNTLKRSKN | not soluble
ELASDVYNKRIWIKDMQADKGKVQLMKGLYWYFDKDPHLLLGGGTGGGKTFTILSLIYALCRVGEMEICDPKNSDLMALGKLPMFAGKVHTGKTDIVNCLKNAVELMNARFEMMNNSPDYKMGKNYAYYGLKPKFIVIDEFAAFKAELANDYSTDGEVDEYLTQLILKARQCGIFLIVAMQRPDG | not soluble
MKDLIIIGAGQAGLTMGYYLKQEGYNFLLLEAGKRVGDSWRNRYDSLQLFTPRSYSSLPGMALIGEKNEFPYKDEIATYLEEYARHFQLPVQLQTEVLKIKKEKEIFELHTPTEILQTKKVIIASGAFQQPFIPSVSANLSSHIFQIHSSQYKSPSQIPKGKVLVVGGGNSGMQIAVELAKTHEVTVSISHPLTFLPLQLFGKSIFNLLEKVGLLYAEINTKRGRWFQKRKDPIFGFEGKKLIRNGAIKLQEKVVSASRNNIMFQNGDTYSAESIIWSTGFVQNYNWIEIEQAVNEKGFPNHIKGISPVKGLYYIGLPLEHHHHHH | not soluble
MTIENDYAKLKELMEFPAKMTFKVAGINREGLAQDLIQVVQKYIKGDYIPKEKRSSKGTYNSVSIDIIAENFDQVETLYKELAKVEGVKMVI | not soluble
MAGDPMDTISRISSYVAGKVVKYPGLKYIAGVAISYAIHKFEESGLWRSVPIDKYIQLPRELEHHHHHH | not soluble
AFNNNPSSVGAYSSGTYRNLAQEMGKTNIQQKVNSTFDNMFGYNNTQQLYYPYTENGVYKAHYIKAINPDEGDDIRTEGQSWGMTAAVMLNKQEEFDNLWRFAKAYQKNPDNHPDAKKQGVYAWKLKLNQNGFVYKVDEGPAPAGEEYFAFALLNASARWGNSGEFNYYNDAITMLNTIKNKLMENQIIRFSPYIDNLTDPSYHIPAFYDYFANNVTNQADKNYWRQVATKSRTLLKNHFTKVSGSPHWNLPTFLSRLDGSPVIGYIFNGQANPGQWYEFDAWRVIMNVGLDAHLMGAQAWHKSAVNKALGFLSYAKTNNSKNCYEQVYSYGGAQNRGCAGEGQKAANAVALLASTNAGQANEFFNEFWSLSQPTGDYRYYNGSLYMLAMLHVSGNFKFYNNTFN | soluble
MGSDKIHHHHHHMSELNNQLWASADILRGKMDASEYKNYLLGLVFYKYLSDQELRAVYEEEQGKVAEYPSRDEQFSGLLDWYNDDAAGIREIISKKLGYFIEPDSLFYTFRKKAGEYELHISDIQNAFIELGRQGEHFAGLFDDVDLASTKLGANAQQRNVTITEVIKALDEIDLFGHDGDVIGDAYEYLIGQFAAGAGKKAGEFYTPQAVSKIISEIVAIGQEETAPFHIYDPTMGSGSLMLNIRRFVKNPGQVHYHGQELNTTTYNLARMNLILHNVEQSQMRLRNGDTLDEDWPTDEPYLFNAVVMNPPYSANWSADGKFLSDPRFEQYGKLAPKSKADFSFLLHGFYHLNEKGTMGIVLPHGVLFRGASEGVIRKTLLDMGAIEAVIGLPANIFYGTSIPTVVLILKKNRAKRDVLFIDASKAFEKQKNQNCIRSQDIRKIVDTYKKRSSSPQYAHLADYDEIVRNDYNLNIPRYVDTFEEEAPIDIVALSKEITDLNLQIKQREAEFLGMLSQLAITDETKELIEATKGIFM | not soluble
MNYILKQMLGGRQVIATHTCIGMDTDAFQNGRNLVTDTLEIYTGDLRKTLDTLSSIFHPSSFPLKSLRILDNADFKHPIIQGSLLLVVPNTENMHLISNKRVHARYFYYKDDVDFIINKWLDDGKEAGTHFSIGMFLTEDHVKEKYEEFLSTFEERVSWRTNYPPCFAINIDNFSEIVIGYEEFQQISTPEWRLNFKVQKREEFV | not soluble
MADFDNLFDAAIARADETIRGYMGTSATITSGEQSGAVIRGVFDDPENISYAGQGVRVEGSSPSLFVRTDEVRQLRRGDTLTIGEENFWVDRVSPDDGGSCHLWLGRGVPPAVNRRR | soluble
MRYEALRLLCFFDLPMESKDEKRIYRNFRKELISNGFEMLQFSVYYRTCPNRSFANKFYKKLKMSNLPAGNVRLLAVTEKQFSEMTLIIGGKTKQEEIVSDNKLVIILEHHHHHH | soluble
PVDCSVIVVNKQTKDYAESVGRKVRDLGMVVDLIFLNTEVSLSQALEDVSRGGSPFAIVITQQHQIHRSCTVNIMFGTPQEHRNMPQADAMVLVARNYERYKNECREKEREEIARQA | soluble
MGSDKIHHHHHHMTTYSPSQENYRELAHLLARFTSLTQIKTIFYDFTGILLKDDFVYINHSAIEDNLAQLTFSDYAVFPVSRNIQMWGAILCESVNVSKKRLFLSRSYLENLMTQIFDEDTLGKVSVWEPLTSDQVGQINNLHALFHPTGDTDPLQAVLAPNAVIAGHTIDNDEAFRSISLAIDYIQKNIQRPISLNEVAQRAYLSPSYLSRLFKKYLHVNFIEYVNNQKIALAQEKLSLTLTPINQISNQIGFTQTSYFTKIFKKKTGITPSEFRQRNHTIQKIYTIPRELNWDTNDSVIDVTKNYFKSHHITYHTDSEEGATYVNSIGELNDAKGNRGWIYTVDGQQPTQSADEIATHDKSVIQWVYTDYSN | not soluble
MPDAVVIGAGPNGLVAANLLADAGWSVTVLEEQDEPGGAVRHDNGVDPDFTTDLFSSFYPLAAASPVLAGLHLEREGLRWSHAPRVLAHPLSDGRCAVLGRDLDDTAASLDTFADGDGAAWRELHDVWERLRPDLLDALFTPFPPVRAGARLAARLRAGGGLRLARSLVLPVRRLGEEEFRGEGGRLLLAGNALHADLAPEAAGSGGFGWLMSMLGQTYGFPVPVGGSGALTSALTQRLHRRGGVLRCGQRVSEVVVRQGRAVAVRTAGGETVPARRAVLADVSVPALYGTLVGSAHLPAQVLADLRRFQWDFATFKVDWALDGPVPWQADAASAAGTVHLADGVDELTRFAAQIAMRQVPDRPFALFGQMTTADATRSPEGTEAAWAYTHVPHRIAGDAGDAGLAGTWDAREQELMADRVERQVERFAPGFRSLIRARRILAPPTLQSLNANLYGGAINGGTTALHQQLVFRPIPGTGRPETPVANLFLASAGAHPGGGVHGAPGANAARAALRKHLPSGLTRAQRLLTRRNRKGERDTGFGGLEHHHHHH | not soluble
MSLGADRSAPMTARIDQLLLERLKSAGVEPAPAADDGEFLRRAYLDLSGTIPPVAITRDYLADSSPAKRRQLIERLLASPAFASHLASTWREIILKPTDDFQQLQNQFALQAWLREQFSENARYDRIVEQFITASSEQDGPVYFYDALDLKPEQLAAETSRIFLGLHIQCAECHDHPFDDWKQRDFWGYAAFFARVAKRDSAMGRISLVDQEMGEVKIPESEETVAPLYPGGSAPSDRFGGTRRQKLAVWMVARDNPYTARRAVNWAWAHLFGRGLVEPVDDLSPLNAPSHPALMEELTQYFIDSGYDLRQLLRTLAMTDAYARSSQNVDGQRPELFANMAIKSLSPEQLYDAILRLGLIRETVGDLSSQAPQPFDRSQQRLQFVARMRTVSLDRTDFETGAPQALALMNGPPVSLATAPETSGFLKSLEAPFFSDEQRVELIALAAYSRQPTAEERQRFSEYLATASPNEKKQALGDLLWAVAASAEFMLNEGHHHHHH | not soluble
MGSDKIHHHHHHMNIVSQLSPVTLSPELIARFTAIVGDKHALTDPLELEAYITEERNLYRGHSPLVLRPGSTEEVVAICKLANEARVALVPQGGNTGLVGGQTPHNGEVVISLKRMDKIREIDTSSNTITVEAGAILQRVQEKAAEVDRLFPLSLGAQGSCTIGGNLSTNAGGTAALAYGLARDMALGVEVVLADGRVMNLLSKLKKDNTGYDLRDLFIGAEGTLGIITAATLKLFPKPRAVETAFVGLQSPDDALKLLGIAQGEAAGNLTSFELIAETPLDFSVRHANNRDPLEARYPWYVLIELSSPRDDARAALESILERGFEDGIVVDAAIANSVQQQQAFWKLREEISPAQKPEGGSIKHDISVPVAAVPQFIEQANAAVVALIPGARPVPFGHLGDGNIHYNVSQPVGADKAEFLARWHDVSQVVFEVVLRLGGSISAEHGIGVMKRDELAEVKDKTAIELMRSIKALLDPHGIMNPGKVV | not soluble
INLEDPRSFLGRELPGFAQFDTEILLAGQGTDYTNMPAESPPPSKVMEEEREANLAEIEKQQTQSDNAQKDPPKQTTGDKKVVFIYHTHNTESYLPLLKGETDPDMARHSKANVTLVGDMFGQALESQGIGATVNKTDIQSKLNKKGLNYARSYDESRPVVKDALASNKNLQYIIDIHRDSRRKKDTTATIKGKSYARVAFVVGKKSKNFEENYKIASELHKLMEKKYPGLSTGVFSKGSPGDNGVYNQDLTDRALLLEFGGVDNNLEELQRAANAAADVFSEMYWDAEKVNAASGE | not soluble
MSLKNTGYILALCLTASGHVLAHDVWITGKQAENNVTAEIGYGHNFPSKGTIPDRRDFFENPRLYNGKETITLKPASTDYVYKTESASKDNGYVLSTYMKPGYWSRTSSGWKPVSREGRNDVAYCEFVTKYAKSFIPGEQQMPAQLYQSPTGHELEIIPLSDISRFSENVKLKVLYKTSPLAGAIMELDSVSYLTSSRHTHAVEHKHPVHKAELTFVTNEDGIVTVPSLHIGQWLAKVQNKKSFQDKSLCDETVDVATLSFSRNEGHHHHHH | soluble
MSLIIDCHGHVSAPVELWAYKASLLAHRGSHGRGGVKVTDEQIIAAAHHKETWPDGHIELLHNHGTDMQLISPRTFQMMNSAKPARVVHWFCEEVNTLIHRQCTLIPEMFIPVAGLPQVAGEPIENVFAEMDRCVSMGFKGFLLNPDPYENGAEEAPPLGDRYWYPLYEKLCELDLPAHIHATGSQSERSPYSLHFINEETIATYNLCTSSVFDDFPQLKVVVSHGGGAIPYQLGRFESQSRRSKHLFSERMAKLYFDTVLYTEGALRLLIETVGPERCLFGSECPGVGSTIDPATGKQMDHIAPFIQKFDFLSDADKKLIFEDNARKVFNLEVEGHHHHHH | soluble
